Measured values as given in patent publication US20210055300A1 (EISAI R AND D MANAGEMENT, published 2021).

Assays:
[1] = molecular target: T1, refolded rhAPOA4-His monomer (human, UniProt P06727 21-396); test: ELISA, antigen captured by anti-6xHis antibody, hybridoma supernatant
T1 construct: not shown: C-terminal histidine tag
T1 sequence: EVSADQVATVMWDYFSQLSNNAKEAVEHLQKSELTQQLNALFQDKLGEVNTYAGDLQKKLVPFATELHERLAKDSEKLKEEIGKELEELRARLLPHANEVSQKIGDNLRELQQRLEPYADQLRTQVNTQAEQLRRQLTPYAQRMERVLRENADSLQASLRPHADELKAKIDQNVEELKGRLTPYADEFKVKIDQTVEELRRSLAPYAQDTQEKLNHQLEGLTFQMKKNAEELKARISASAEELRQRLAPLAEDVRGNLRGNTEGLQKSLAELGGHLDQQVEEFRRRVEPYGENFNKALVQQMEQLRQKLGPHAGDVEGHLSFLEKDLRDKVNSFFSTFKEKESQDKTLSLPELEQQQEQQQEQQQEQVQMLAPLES
Description: Using the culture supernatant of the hybridoma obtained in (1), the reactivity to rhAPOA4-His was evaluated by ELISA as follows.
50 μL/well of a 50 mM Tris buffer (pH 7.5) containing 2 μg/mL of an anti-6×His rabbit polyclonal antibody (anti-6×His antibody, manufactured by Bethyl Laboratories) was added to a 96-well plate (manufactured by Nunc), and incubation was performed at 4° C. overnight. After removing the anti-6×His antibody solution, blocking was performed by adding 100 μL/well of 50 mM Tris-buffered saline solution (pH 7.5) containing 0.01% Tween 20 and 5% skim milk, and the plate was left at room temperature for 1 hour. After washing the well three times with Tris-buffered saline solution (pH 7.5) (washing solution) containing 0.01% Tween 20, rhAPOA4-His prepared in Example 1 or refolded rhAPOA4-His monomer prepared by the method described below was added at a concentration of 450 ng/mL (10 nM) by 50 μL/well, and incubation was performed at room temperature for 1 hour. The refolded rhAPOA4-His monomer was prepared by diluting rhAPOA4-His prepared in Example 1 two-fold with a 50 mM Tris-buffered saline solution (pH 7.5) containing 8 M urea (manufactured by Wako Pure Chemical Industries, Ltd.), leaving at room temperature for 30 minutes, and diluting 50-fold with a 50 mM Tris-buffered saline solution (pH 7.5) (reaction solution) containing 4% Block Ace (manufactured by DS Pharma Biomedical Corporation) and 0.01% Tween 20. After washing the well three times with the washing solution, the culture supernatant of the hybridoma was added to the well and incubation was performed at room temperature for 1 hour. After removing the added culture supernatant, the well was washed three times with the washing solution. A horseradish peroxidase-labeled anti-mouse IgG antibody (manufactured by Jackson ImmunoResearch Laboratories) appropriately diluted with the reaction solution was added at 50 μL/well, incubation was performed at room temperature for 1 hour, and then the well was washed 5 times with the washing solution. […]

rhAPOA4-His monomer = molecular target: T2, rhAPOA4-His monomer (human, UniProt P06727 21-396); test: statement of the description; experiment is the ELISA of Example 4 (FIG. 1)
T2 construct: also called APOA4 monomer; monomer of rhAPOA4-His; not shown: C-terminal histidine tag
T2 sequence: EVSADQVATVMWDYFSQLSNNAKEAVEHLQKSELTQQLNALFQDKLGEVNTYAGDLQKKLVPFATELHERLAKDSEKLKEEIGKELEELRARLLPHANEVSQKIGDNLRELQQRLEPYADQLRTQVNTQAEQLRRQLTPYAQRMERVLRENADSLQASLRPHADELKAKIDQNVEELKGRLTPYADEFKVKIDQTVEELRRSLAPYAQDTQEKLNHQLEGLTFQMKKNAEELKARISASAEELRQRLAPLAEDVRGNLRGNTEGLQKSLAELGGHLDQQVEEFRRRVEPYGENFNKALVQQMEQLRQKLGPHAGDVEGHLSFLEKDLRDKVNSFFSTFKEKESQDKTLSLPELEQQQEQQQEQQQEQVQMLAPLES
Description: (§1) 50 μL/well of a 50 mM Tris buffer (pH 7.5) containing 2 μg/mL of an anti-6×His rabbit polyclonal antibody (anti-6×His antibody, manufactured by Bethyl Laboratories) was added to a 96-well plate (manufactured by Nunc), and incubation was performed at 4° C. overnight. After removing the anti-6×His antibody solution, blocking was performed by adding 100 μL/well of 50 mM Tris-buffered saline solution (pH 7.5) containing 0.01% Tween 20 and 5% skim milk, and the plate was left at room temperature for 1 hour. After washing the well three times with a Tris-buffered saline solution (pH 7.5) (washing solution) containing 0.01% Tween 20, the rhAPOA4-His monomer or dimer prepared in Example 2 was diluted so as to be 450 ng/mL with a 50 mM Tris-buffered saline solution (pH 7.5) (reaction solution) containing 1% Block Ace (manufactured by DS Pharma Biomedical) and 0.01% Tween 20, and added thereto at 50 μL/well. After incubating at room temperature for 1 hour, the well was washed three times with the washing solution, and then the anti-human APOA4 monoclonal antibody obtained in Example 3 was diluted with the reaction solution so as to be 1 μg/mL and added thereto at 50 μL/well. After the incubation at room temperature for 1 hour, the well was washed three times with the washing solution. Subsequently, 50 μL/well of a horseradish peroxidase-labeled anti-mouse IgG antibody (manufactured by Jackson ImmunoResearch Laboratories) appropriately diluted with the reaction solution was added, incubation was performed at room temperature for 1 hour, and the well was washed 5 times with the washing solution. 50 μL/well of a TMB (3,3′,5,5′-tetramethylbenzidine) solution was added and incubation was performed at room temperature for 15 minutes. The reaction was stopped by adding 50 μL/well of 1N H₂SO₄ in the equivalent volume to that of the TMB solution, and the absorbance of 450 nm was measured using a microplate reader (manufactured by ThermoFisher Scientific).

rhAPOA4-His dimer = molecular target: T3, rhAPOA4-His dimer (human, UniProt P06727 21-396); test: as above
T3 construct: also called APOA4 dimer; dimer of rhAPOA4-His; not shown: C-terminal histidine tag
T3 sequence: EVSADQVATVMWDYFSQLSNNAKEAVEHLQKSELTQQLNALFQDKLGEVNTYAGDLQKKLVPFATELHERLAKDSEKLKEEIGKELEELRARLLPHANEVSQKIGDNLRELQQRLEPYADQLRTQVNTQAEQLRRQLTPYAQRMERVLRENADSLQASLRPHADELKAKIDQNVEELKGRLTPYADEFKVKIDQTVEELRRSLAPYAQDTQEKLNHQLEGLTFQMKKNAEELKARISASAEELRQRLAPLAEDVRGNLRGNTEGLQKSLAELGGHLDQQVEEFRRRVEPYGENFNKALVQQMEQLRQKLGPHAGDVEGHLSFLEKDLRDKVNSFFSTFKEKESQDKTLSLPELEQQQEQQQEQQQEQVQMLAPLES
Description: as §1

APOA4 in human serum [2] = molecular target: T4, APOA4 in human serum (human, UniProt P06727 21-396); test: sandwich ELISA on diluted human serum, labeled detection antibody with No. 30 as capture
T4 construct: Native protein in serum of healthy humans (monomer and dimer); also called human serum APOA4; APOA4 in the specimen
T4 sequence: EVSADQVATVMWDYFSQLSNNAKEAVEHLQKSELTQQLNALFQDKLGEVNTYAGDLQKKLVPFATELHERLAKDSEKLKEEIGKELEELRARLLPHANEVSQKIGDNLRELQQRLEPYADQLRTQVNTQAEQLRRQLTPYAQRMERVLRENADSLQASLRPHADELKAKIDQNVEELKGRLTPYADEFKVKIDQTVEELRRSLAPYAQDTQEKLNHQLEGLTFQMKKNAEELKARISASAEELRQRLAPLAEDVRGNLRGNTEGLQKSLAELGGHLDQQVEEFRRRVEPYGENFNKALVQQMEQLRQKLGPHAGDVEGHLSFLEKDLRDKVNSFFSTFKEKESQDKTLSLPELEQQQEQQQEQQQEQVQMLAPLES

APOA4 in human serum [3] = molecular target: T4, APOA4 in human serum; test: sandwich ELISA, labeled detection antibody
Description: (§2) Anti-human APOA monoclonal antibody No. 30 was adjusted to a concentration of 2 μg/mL with a 50 mM Tris buffer solution (pH 7.5). Antibody No. 30 solution was added to a Maxisorp cup (NUNC, manufactured by C8 Maxisorp) at 100 μL/well, the Maxisorp cup was put in a wet box and allowed to stand at 4° C. overnight, and antibody No. 30 was coated on the well. After removing antibody No. 30 solution by suction, a 50 mM Tris-buffered saline solution (pH 7.5) (blocking solution) containing 5% skim milk, 0.1% sodium azide, and 0.01% Tween 20 was added at 200 μL/well, and then the cup was left at room temperature for 2 hours or at 4° C. for 1 day or more (hereinafter, the prepared Maxisorp cup is referred to as “antibody No. 30 cup”). […] After stopping the reaction by injecting 100 μL/well of 0.5 M H₂SO₄, the absorbance was measured at a wavelength of 450 nm, and an APOA concentration was calculated using the rhAPOA4-His of a known concentration as a standard substance.

[4] = molecular target: T5, recombinant human APOA4 in which a histidine tag is bound to the C-terminal of human APOA4 (human, UniProt P06727 21-396); test: HDX-MS of rhAPOA4-His with and without antibody
T5 construct: Secreted from Expi293F cells and purified from the supernatant; Unfractionated mix of monomer and dimer; also called rhAPOA4-His; rhAPOA-His; not shown: C-terminal histidine tag
T5 sequence: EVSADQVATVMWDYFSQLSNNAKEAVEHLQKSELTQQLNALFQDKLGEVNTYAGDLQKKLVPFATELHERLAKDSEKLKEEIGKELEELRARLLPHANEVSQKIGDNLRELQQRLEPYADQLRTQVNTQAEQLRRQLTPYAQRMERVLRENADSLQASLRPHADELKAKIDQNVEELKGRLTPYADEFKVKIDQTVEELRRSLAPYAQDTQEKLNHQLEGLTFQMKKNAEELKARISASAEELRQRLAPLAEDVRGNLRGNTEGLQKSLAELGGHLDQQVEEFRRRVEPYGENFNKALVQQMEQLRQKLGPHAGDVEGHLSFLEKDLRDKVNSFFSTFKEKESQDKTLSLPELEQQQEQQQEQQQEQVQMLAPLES
Description: A solution in which about 10 μM of antibody No. 30 or antibody No. 33 were added to 10 μM of rhAPOA4-His and rhAPOA4-His and mixed therewith was diluted 20-fold with a PBS deuterium solution to start a deuteration reaction. As a control, a PBS solution was used.
After 1 minute, 10 minutes, 60 minutes, and 240 minutes at 23° C., an equivalent amount of 500 mM TCEP solution (pH 3 or less) containing cooled 2M guanidine hydrochloride was added to stop the reaction. After digesting the reaction solution with a pepsin column, peptide was separated and eluted by reversed-phase liquid chromatography using a C18 column, and LC-MS/MS measurement was performed with a mass spectrometer.
Each peptide derived from rhAPOA4-His was identified from the mass data, and the amount of deuterium exchange at each reaction time was calculated from the mass value. The peptide in which the amount of deuterium exchange was changed depending on the presence or absence of the antibody was extracted as an estimated epitope region.

APOA4 in human serum [5] = molecular target: T4, APOA4 in human serum; test: sandwich ELISA, capture antibody
Description: as §2

Measured: binding result

B1: anti-APOA4 monoclonal antibody No. 37 (antibody, IgG1, V domains shown)
VH: QVQLQQSGAELVKPGASVKISCKASGYTFSNYWLNWVKLRPGKGLEWIGQIYPGDGDTNYNGKFKGKATLTADKSSSRAYMQLSSLTSEDSAVYFCARRNNYVMDYWGQGTSVTVSS
VL: DIVMTQSHKFMSTSVGDRVSITCKASQDVGTSVAWYQQKLGQSPKLLINWASIRHTGVPDRFTGSGSGTDFSLTISNVQSEDLADHFCQQYSSYPFTFGSGTKLEIK
notes: Mouse hybridoma antibody; also called anti-human APOA4 monoclonal antibody No. 37; HRP-labeled antibody No. 37
binds: [1] | rhAPOA4-His monomer | rhAPOA4-His dimer | APOA4 in human serum [2]

B2: anti-APOA4 monoclonal antibody No. 33 (antibody, IgG1, V domains shown)
VH: QVHLQQSGAELVRPGSSVKISCKASGYAFSIYWMNWVRQRPGQGLEWIGQIYPGDGDTTYNGKFKGKATLTADKSSNTAYMHLSSLTSEDSAVFFCARRGDYVYDYWGQGTTLTVSS
VL: DIVMTQSHKLMSTSVGDRVSITCKASQDVGTAVAWYQQKPGQSPKLLIYWASTRHTGVPDRFTGSGSGTDFTLTIYNVQSEDLADYFCQQYSTYPFTFGSGTKLEIK
notes: Mouse hybridoma antibody; unlabelled in HDX-MS; also called anti-human APOA4 monoclonal antibody No. 33; HRP-labeled antibody No. 33
binds: APOA4 in human serum [3] | [4] | [1] | rhAPOA4-His monomer | rhAPOA4-His dimer

B3: anti-APOA4 monoclonal antibody No. 30 (antibody, IgG2b, V domains shown)
VH: EVQLQQSGPELVKPGASVKISCKASGYSFIGYFMSWVKQSHGKSLEWIGRINPYNGDTFYNQKFKGKATLTVDKSSSTAHMELLSLTSEDSAVYYCGRGIIGFDYWGQGTTLTVSS
VL: DIQMTQSPASLSASVGETVTITCRPSENIHSYLAWYHQKQGKSPQLLVYDATTLAEGVPSRFSGSGSGTQFFLKINSLQPEDFGSYYCQHHYVSPWTFGGGTKLEIK
notes: Mouse hybridoma antibody purified with Protein A; Used as capture antibody coated on the well in the sandwich ELISAs; also called anti-human APOA4 monoclonal antibody No. 30; Anti-human APOA monoclonal antibody No. 30
binds: [4] | [1] | rhAPOA4-His monomer | rhAPOA4-His dimer | APOA4 in human serum [5]
